Experimental data: the supplement of paper PMC10126150
± gives the standard deviation of the averaged measurements.

Test system: ATP
Assay: switch fluorescence ratio, 500 uM ATP over buffer (Cy3 cluster intensity, sum of 5 cycles each) (fold (ratio)); higher = stronger signal-on switching upon ATP binding; sequences stand for … in TCGTCGGCAGCGTCAGATGTGTATAAGAGACAGTTTTTTTTTTTTTTTTTTTTTTTTT…TC
Details: aptamer strand: ATP DNA aptamer (quencher-CACCTGGGGGAGTATTGCGGAGGAAGG + anchor), 100 nM annealed; ATP concentration: 500 uM
In short: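 Exposure to 500 uM ATP lasted 15 min at 22 °C before imaging, and a selection-buffer image was taken beforehand, for Cy3-labelled switching-strand clusters on a modified Illumina MiSeq flow-cell annealed to 100 nM quencher-labelled ATP aptamer. Five buffer/ATP cycles were run with NaOH stripping and re-annealing between them. The fluorescence ratio per cluster is summed target-cycle over summed buffer-cycle Cy3 intensity, averaged per switch-domain sequence. Clusters outside 100-1000 RFU were excluded.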

| Sequence | switch fluorescence ratio |
| --- | --- |
| TTAGGATAT | 1.02 ± 0.041 |
| TTAGGATTCG | 1.02 ± 0.039 |
| TTAGGATTTT | 1.01 ± 0.011 |
| TTAGGCAGGG | 1 ± 0.016 |
| TTAGGCAGGT | 0.994 ± 0.048 |
| TTAGGCCCTT | 1.02 ± 0.011 |
| TTAGGCCTTT | 0.972 ± 0.048 |
| TTAGGCGCCG | 0.994 ± 0.054 |
| TTAGGCGGGT | 1.01 ± 0.064 |
| TTAGGCGGTT | 1 ± 0.017 |
| TTAGGCTAAA | 1.002 ± 0.0074 |
| TTAGGGATCT | 0.9904 ± 0.0042 |
| TTAGGGCTTA | 0.995 ± 0.013 |
| TTAGGGGAAA | 1.03 ± 0.066 |
| TTAGGGGACA | 1.04 ± 0.025 |
| TTAGGGGGAC | 1 ± 0.041 |
| TTAGGGGGAT | 0.988 ± 0.019 |
| TTAGGGGGCA | 1.01 ± 0.03 |
| TTAGGGGGCG | 1.03 ± 0.045 |
| TTAGGGGTCC | 0.998 ± 0.022 |
| TTAGGGGTGC | 1.07 ± 0.037 |
| TTAGGGGTTG | 0.979 ± 0.024 |
| TTAGGGGTTT | 0.997 ± 0.041 |
| TTAGGGTCCC | 1.02 ± 0.016 |
| TTAGGGTGCA | 1.01 ± 0.025 |

| Sequence | switch fluorescence ratio |
| --- | --- |
| TTAGGTACCG | 1.012 ± 0.0016 |
| TTAGGTCCGG | 1.008 ± 0.0092 |
| TTAGGTGAGG | 0.993 ± 0.026 |
| TTAGGTGGAG | 0.977 ± 0.031 |
| TTAGGTGTTA | 1.03 ± 0.022 |
| TTAGGTTCAG | 0.9774 ± 0.0084 |
| TTAGTACATG | 0.976 ± 0.019 |
| TTAGTACTGC | 1.03 ± 0.02 |
| TTAGTAGGGG | 1 ± 0.021 |
| TTAGTAGTGC | 1.02 ± 0.035 |
| TTAGTAGTTG | 1.02 ± 0.028 |
| TTAGTATTTA | 1.01 ± 0.056 |
| TTAGTCCAGA | 1.007 ± 0.0018 |
| TTAGTCGGGA | 1.023 ± 0.0028 |
| TTAGTGACTA | 1.01 ± 0.031 |
| TTAGTGATCT | 0.998 ± 0.015 |
| TTAGTGGGTA | 0.981 ± 0.082 |
| TTAGTGTCGT | 1.02 ± 0.017 |
| TTAGTTAAAG | 1 ± 0.014 |
| TTAGTTATAC | 1.78 ± 0.59 |
| TTAGTTATTC | 1.022 ± 0.0032 |
| TTAGTTGGTC | 0.996 ± 0.029 |
| TTAGTTGTGG | 0.982 ± 0.02 |
| TTAGTTTAAT | 1.02 ± 0.024 |
| TTAGTTTATG | 0.981 ± 0.017 |

| Sequence | switch fluorescence ratio |
| --- | --- |
| TTAGTTTCTT | 0.999 ± 0.017 |
| TTAGTTTTAC | 1.004 ± 0.0029 |
| TTAGTTTTCT | 0.96 ± 0.013 |
| TTAGTTTTTT | 1.01 ± 0.019 |
| TTATAAAAAC | 0.982 ± 0.076 |
| TTATAAAAAG | 0.974 ± 0.042 |
| TTATAACTTT | 1.02 ± 0.028 |
| TTATAAGAGG | 0.979 ± 0.0047 |
| TTATAAGCGA | 1.02 ± 0.035 |
| TTATAAGGAA | 0.981 ± 0.015 |
| TTATAAGGGA | 0.977 ± 0.049 |
| TTATAAGTTA | 0.9814 ± 0.0043 |
| TTATAAGTTT | 1.03 ± 0.078 |
| TTATAATAGT | 1 ± 0.013 |
| TTATAATTGT | 0.9966 ± 0.0022 |
| TTATAATTTC | 1.009 ± 0.0023 |
| TTATACGCTT | 1.1 ± 0.017 |
| TTATAGAGGT | 1.01 ± 0.011 |
| TTATAGGGCG | 1.02 ± 0.047 |
| TTATATCAGA | 1.016 ± 0.0083 |
| TTATATGTAG | 0.993 ± 0.024 |
| TTATATGTGT | 1.01 ± 0.039 |
| TTATATGTTA | 1.03 ± 0.055 |
| TTATATTACT | 1.01 ± 0.027 |
| TTATATTTAG | 0.988 ± 0.011 |

| Sequence | switch fluorescence ratio |
| --- | --- |
| TTATATTTAT | 1.03 ± 0.069 |
| TTATATTTTG | 0.998 ± 0.017 |
| TTATATTTTT | 1.02 ± 0.023 |
| TTATCACTGG | 1 ± 0.07 |
| TTATCAGTGT | 0.972 ± 0.063 |
| TTATCATTTA | 1.01 ± 0.03 |
| TTATCGGTAT | 1 ± 0.042 |
| TTATCTGATT | 0.9952 ± 0.0017 |
| TTATCTGCCT | 1.06 ± 0.072 |
| TTATGAACTT | 1 ± 0.035 |
| TTATGAAGAC | 1.025 ± 0.01 |
| TTATGAAGGA | 1.02 ± 0.021 |
| TTATGAAGGT | 1.02 ± 0.06 |
| TTATGATTCT | 0.972 ± 0.025 |
| TTATGCGGGG | 0.995 ± 0.046 |
| TTATGCTGGG | 0.974 ± 0.012 |
| TTATGGGACA | 1.026 ± 0.0097 |
| TTATGGGATT | 0.993 ± 0.019 |
| TTATGGGCGG | 1.02 ± 0.047 |
| TTATGGTCGG | 0.984 ± 0.016 |
| TTATGGTGCA | 0.99 ± 0.023 |
| TTATGGTGGT | 0.973 ± 0.027 |
| TTATGTAATC | 1.19 ± 0.25 |
| TTATGTCCGG | 1.02 ± 0.025 |
| TTATGTGACT | 1.01 ± 0.021 |

| Sequence | switch fluorescence ratio |
| --- | --- |
| TTATGTGCGA | 1.02 ± 0.013 |
| TTATGTGTCG | 0.983 ± 0.033 |
| TTATGTGTGT | 0.996 ± 0.028 |
| TTATGTTAAA | 1.01 ± 0.022 |
| TTATGTTTGG | 1.02 ± 0.033 |
| TTATGTTTTT | 1.01 ± 0.025 |
| TTATTAAGGG | 0.98 ± 0.047 |
| TTATTAATAC | 1.177 ± 0.0012 |
| TTATTACGTG | 1.01 ± 0.023 |
| TTATTAGCTT | 0.9916 ± 0.004 |
| TTATTAGTAG | 1.002 ± 0.0049 |
| TTATTAGTGC | 1.03 ± 0.1 |
| TTATTAGTTT | 0.994 ± 0.017 |
| TTATTATACG | 1.01 ± 0.054 |
| TTATTATTGA | 0.989 ± 0.011 |
| TTATTCGGCG | 1 ± 0.032 |
| TTATTGATCC | 0.9978 ± 0.0019 |
| TTATTGGCGG | 1.015 ± 0.0097 |
| TTATTGGTTT | 1.048 ± 0.0096 |
| TTATTGTTGA | 1.02 ± 0.011 |
| TTATTTATTA | 1.0338 ± 0.00047 |
| TTATTTCAAC | 0.9728 ± 0.0052 |
| TTATTTGACT | 1.01 ± 0.041 |
| TTATTTGATT | 1.01 ± 0.029 |
| TTATTTGCCT | 1.17 ± 0.18 |

| Sequence | switch fluorescence ratio |
| --- | --- |
| TTATTTGCTG | 1.02 ± 0.056 |
| TTATTTGGCC | 0.997 ± 0.032 |
| TTATTTGTGG | 0.97 ± 0.02 |
| TTATTTGTTT | 0.977 ± 0.018 |
| TTATTTTAAA | 1.01 ± 0.024 |
| TTATTTTCAC | 1.04 ± 0.036 |
| TTATTTTGGT | 1.01 ± 0.035 |
| TTATTTTGTA | 1.03 ± 0.013 |
| TTCAAACGAG | 1.01 ± 0.031 |
| TTCAAAGTTT | 0.993 ± 0.015 |
| TTCAAATGGG | 0.9991 ± 0.0053 |
| TTCAACTTAT | 0.954 ± 0.049 |
| TTCAAGCGTT | 0.982 ± 0.019 |
| TTCAAGCTTT | 1.01 ± 0.022 |
| TTCAAGGATA | 0.986 ± 0.05 |
| TTCAAGTGAA | 0.979 ± 0.012 |
| TTCAAGTTAT | 1.04 ± 0.045 |
| TTCAAGTTGG | 0.974 ± 0.024 |
| TTCAATAGGA | 1.03 ± 0.045 |
| TTCAATGGCA | 1.0245 ± 0.00028 |
| TTCAATTTGG | 1.01 ± 0.021 |
| TTCACAAGG | 1.0218 ± 0.00034 |
| TTCACGGCCC | 1.04 ± 0.013 |
| TTCACGGGAT | 1.06 ± 0.035 |
| TTCACGGGTT | 1.01 ± 0.021 |

| Sequence | switch fluorescence ratio |
| --- | --- |
| TTCACGGTCG | 1.03 ± 0.024 |
| TTCACTATTT | 1.02 ± 0.028 |
| TTCAGCTTTT | 0.984 ± 0.037 |
| TTCAGGATA | 1.01 ± 0.033 |
| TTCAGGGGGG | 1.02 ± 0.033 |
| TTCAGGGTCC | 1.03 ± 0.035 |
| TTCAGTGGTG | 0.965 ± 0.053 |
| TTCAGTGTTA | 1.017 ± 0.0058 |
| TTCAGTTCGA | 0.9971 ± 0.0057 |
| TTCAGTTGGT | 0.987 ± 0.017 |
| TTCATAGCTT | 1.02 ± 0.043 |
| TTCATATGCG | 0.995 ± 0.016 |
| TTCATATTAT | 0.9472 ± 0.0062 |
| TTCATATTGT | 0.955 ± 0.024 |
| TTCATCCGTA | 1.39 ± 0.23 |
| TTCATCGTCT | 1.01 ± 0.042 |
| TTCATGCCTG | 1.12 ± 0.092 |
| TTCATGGGAG | 0.99 ± 0.022 |
| TTCATGGGG | 0.9879 ± 0.0094 |
| TTCATGTGTT | 1.04 ± 0.037 |
| TTCATTCATG | 0.97 ± 0.0033 |
| TTCATTGTTT | 1.01 ± 0.02 |
| TTCATTTTTT | 1.02 ± 0.041 |
| TTCCAAGACA | 1.01 ± 0.026 |
| TTCCAATAAG | 1.01 ± 0.02 |

| Sequence | switch fluorescence ratio |
| --- | --- |
| TTCCAATAGG | 1.13 ± 0.21 |
| TTCCACGTAT | 1.18 ± 0.046 |
| TTCCACGTTT | 1.11 ± 0.12 |
| TTCCAGGGCA | 1.02 ± 0.022 |
| TTCCAGTTT | 1 ± 0.04 |
| TTCCATAGGG | 0.987 ± 0.022 |
| TTCCATCACA | 1.01 ± 0.021 |
| TTCCCATGGG | 1.02 ± 0.027 |
| TTCCCGGGTG | 1.53 ± 0.55 |
| TTCCCTTATG | 0.976 ± 0.017 |
| TTCCCTTTTG | 1.02 ± 0.0057 |
| TTCCGAAAAT | 1.01 ± 0.046 |
| TTCCGAGTTT | 1.15 ± 0.19 |
| TTCCGCACGT | 2.64 ± 1.3 |
| TTCCGGAGAT | 1.43 ± 0.34 |
| TTCCGGCTCT | 1.61 ± 0.8 |
| TTCCGGGGGG | 1.02 ± 0.054 |
| TTCCGGGGTA | 1.02 ± 0.032 |
| TTCCGTTTTA | 1.15 ± 0.17 |
| TTCCTCCTTC | 1.83 ± 0.89 |
| TTCCTCGTTA | 1.39 ± 0.029 |
| TTCCTGATGC | 1.04 ± 0.092 |
| TTCCTGTCGT | 1.004 ± 0.0021 |
| TTCCTTATTA | 1.02 ± 0.011 |
| TTCGAAAAAG | 0.9961 ± 0.008 |
